The values below come from US8822645B2, “Prostaglandin E2 dual variable domain immunoglobulins and uses thereof” (AbbVie Inc., priority 2008, dated 2014).

For orientation: koff means a measure of how fast the partners let go of each other. One may read the EC50 as the concentration at which the effect is half-maximal.

One data set concerns target antigen. Kind of data set: BIACORE affinity determination of parent antibodies and DVD-Ig constructs. It is filed as binding. As to conditions: antigen IL-6R, 25° C. As to the method: The BIACORE assay (Biacore, Inc, Piscataway, N.J.) determines the affinity of antibodies or DVD-Ig with kinetic measurements of on-rate and off-rate constants. […] All chemicals are obtained from Biacore® AB (Uppsala, Sweden) or otherwise from a different source as described in the text. For example, approximately 5000 RU of goat anti-mouse IgG, (Fcγ), fragment specific polyclonal antibody (Pierce Biotechnology Inc, Rockford, Ill.) diluted in 10 mM sodium acetate (pH 4.5) is directly immobilized across a CM5 research grade biosensor chip using a standard amine coupling kit according to manufacturer's instructions and procedures at 25 μg/ml. Unreacted moieties on the biosensor surface are blocked with ethanolamine. Modified carboxymethyl dextran surface in flowcell 2 and 4 is used as a reaction surface. Unmodified carboxymethyl dextran without goat anti-mouse IgG in flow cell 1 and 3 is used as the reference surface. For kinetic analysis, rate equations derived from the 1:1 Langmuir binding model are fitted simultaneously to association and dissociation phases of all eight injections (using global fit analysis) with the use of Biaevaluation 4.0.1 software. Purified antibodies or DVD-Ig are diluted in HEPES-buffered saline for capture across goat anti-mouse IgG specific reaction surfaces. Antibodies or DVD-Ig to be captured as a ligand (25 μg/ml) are injected over reaction matrices at a flow rate of 5 μl/min. The association and dissociation rate constants, kon (M^−1 s^−1) and koff (s^−1) are determined under a continuous flow rate of 25 μl/min. Rate constants are derived by making kinetic binding measurements at different antigen concentrations ranging from 10-200 nM. The equilibrium dissociation constant (M) of the reaction between antibodies or DVD-Igs and the target antigen is then calculated from the kinetic rate constants by the following formula: KD=koff/kon. Binding is recorded as a function of time and kinetic rate constants are calculated. In this assay, on-rates as fast as 10^6 M^−1 s^−1 and off-rates as slow as 10^−6 s^−1 can be measured.
A general note: In SPR one partner is held on a chip, and binding of the other changes the refractive index at the surface.

For data set [1], the system named is stable cell lines overexpressing a cell-surface antigen of interest or human tumor cell lines. Description: Flow cytometry (FACS) binding to cell surface antigen. The note with it: IL-6R VD in N-terminal position; 2 μg/mL. It is filed as cell-based. On the procedure: Stable cell lines overexpressing cell-surface antigen of interest or human tumor cell lines were harvested from tissue culture flasks and resuspended in phosphate buffered saline (PBS) containing 5% fetal calf serum (PBS/FCS). Prior to staining, human tumor cells were incubated on ice with human IgG at 200 μg/ml in PBS/FCS. 1-5×10^5 cells were incubated with antibody or DVD-Ig (1-2 μg/mL) in PBS/FCS for 30-60 minutes on ice. […] After 30 minutes incubation on ice, cells were washed twice and resuspended in PBS/FCS. Fluorescence was measured using a Becton Dickinson FACSCalibur (Becton Dickinson, San Jose, Calif.).
Stable cell lines overexpressing a cell-surface antigen of interest or human tumor cell lines were harvested from tissue culture flasks and resuspended in phosphate buffered saline (PBS) containing 5% fetal bovine serum (PBS/FBS). Prior to staining, human tumor cells were incubated on ice with (100 μl) human IgG at 5 μg/ml in PBS/FCS. 1-5×10^5 cells were incubated with antibody or DVD-Ig (2 μg/mL) in PBS/FBS for 30-60 minutes on ice. […] After 30 minutes incubation on ice, cells were washed twice and resuspended in PBS/FBS. Fluorescence was measured using a Becton Dickinson FACSCalibur (Becton Dickinson, San Jose, Calif.).
The geometric mean is the n root of the multiplication product of n fluorescent signals (a1×a2×a3 . . . an). […]
A general note: Flow cytometry measures light scatter and fluorescence of single cells or particles in a stream.

The subject of data set [2] is PGE2 / human EP4 receptor in HEK293 Gα16 cells. Kind of data set: EP4 bioassay (Ca++ flux, neutralization of PGE2). It is filed as cell-based. The note with it: PGE2 VD in C-terminal position; EP4 bioassay, Ca++ flux; read-out: C-terminal VD PGE2 Neutralization EC50. In outline: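 Ca++ flux (FLIPR) in HEK293 Gα16 cells stably expressing human EP4, loaded with Ca++-sensitive dye for 90 min. PGE2, alone or pre-incubated with anti-PGE2 antibody, DVD-Ig or isotype control, was added in FLIPR buffer (HBSS, 20 mM HEPES, 0.1% BSA, 2.5 mM probenecid). EC50 derived from PGE2 dose-response.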

A short description of data set [3]: Size exclusion chromatography, percent monomer of parent antibodies and DVD-Ig constructs. Format: physicochemical. As to the method: Antibodies were diluted to 2.5 mg/mL with water and […] is analyzed on a Shimadzu HPLC system using a TSK gel G3000 SWXL column (Tosoh Bioscience, cat#k5539-05k). […] The HPLC system operating conditions are the following: […]
For orientation: Size exclusion chromatography separates by hydrodynamic size, large species first.

B1: DVD152: DVD-Ig construct listed in Table 4 (antibody)
VH: EVQLQESGPGLVRPSQTLSLTCTVSGYSITSDHAWSWVRQPPGRGLEWIGYISYSGITTYNPSLKSRVTMLRDTSKNQFSLRLSSVTAADTAVYYCARSLARTTAMDYWGQGSLVTVSSASTKGPEVQLVQSGAEVKKPGASVKVSCKASGYTFTKYWLGWVRQAPGQGLEWMGDIYPGYDYTHYNEKFKDRVTLTTDTSTSTAYMELRSLRSDDTAVYYCARSDGSSTYWGQGTLVTVSS
VL: DIQMTQSPSSLSASVGDRVTITCRASQDISSYLNWYQQKPGKAPKLLIYYTSRLHSGVPSRFSGSGSGTDFTFTISSLQPEDIATYYCQQGNTLPYTFGQGTKVEIKRTVAAPDVLMTQTPLSLPVTPGEPASISCTSSQNIVHSNGNTYLEWYLQKPGQSPQLLIYKVSNRFSGVPDRFSGSGSGTDFTLKISRVEAEDVGVYYCFQVSHVPYTFGGGTKVEIKR
For B1, the dissociation rate constant (koff) in the data set with target antigen (IL-6R binding by C-terminal domain) worked out at 0.00015 s⁻¹; in the data set on target antigen (IL-6R binding by N-terminal domain), 0.000115 s⁻¹. In data set [1], the “FACS Geometric Mean N-terminal” value worked out at 9.13. In addition, in data set [2], the EC50 was determined as 0.025 nM. Further, the “% Monomer (purity)” value in data set [3] is 87.6%.
